Where a chain is given by its changes, count along the chain named.
B1: B31-H2L2 (antibody, human IgG1, kappa, V domains shown)
VH: EVQLVESGGGLVQPGGSLRLSCAASGFTFSRYAMSWVRQAPGKGLEWVASISRGGSTYYADSVKGRFTISRDNAKNTLYLQMSSLRAEDTAVYYCASYFGNYDAMDYWGQGTTVTVSS
VL: DIQMTQSPSSLSASVGDRVTITCKASQDINNYVSWFQQKPGKAPKSLIYRANRLVDGVPSRFSGSGSGTDYTFTISSLQPEDFATYYCLQFDEFPYTFGGGTKLEIKR
B2: B31-H1L1 (antibody, human IgG1, kappa, V domains shown)
VH: B1 VH with A40T, G44R, A60P, V92M
VL: B1 VL with S46T, T69Q
notes: also called B31-HIL1
B3: B31-H2L3 (antibody, human IgG1, kappa, V domains shown)
VH: B1 VH
VL: B1 VL with K24R, D56S, Y71F
B4: B31-H3L3 (antibody, human IgG1, kappa, V domains shown)
VH: B1 VH with A74S, S83N
VL: B1 VL with K24R, D56S, Y71F
B5: B31-H3L2 (antibody, human IgG1, kappa, V domains shown)
VH: B1 VH with A74S, S83N
VL: B1 VL
B6: B31-H3L4 (antibody, human IgG1, kappa, V domains shown)
VH: B1 VH with A74S, S83N
VL: B1 VL with K24R, V33L, V55Q, D56S, Y71F, F73L
B7: B31-H4L2 (antibody, human IgG1, kappa, V domains shown)
VH: B1 VH with A49S, S50A, A74S, S83N
VL: B1 VL
B8: B31-H4L4 (antibody, human IgG1, kappa, V domains shown)
VH: B1 VH with A49S, S50A, A74S, S83N
VL: B1 VL with K24R, V33L, V55Q, D56S, Y71F, F73L
B9: B31-H4L3 (antibody, human IgG1, kappa, V domains shown)
VH: B1 VH with A49S, S50A, A74S, S83N
VL: B1 VL with K24R, D56S, Y71F
B10: B62-H3L3 (antibody, human IgG1, kappa)
heavy: not shown
light: DIQMTQSPSSLSASVGDRVTITCVTSIDIDDDVNWYQQKPGKAPKLLISAGNTLRPGVPSRFSGSGSGTDFTFTISSLQPEDIATYYCLQSDNLPYTFGGGTKLEIKRTVAAPSVFIFPPSDEQLKSGTASVVCLLNNFYPREAKVQWKVDNALQSGNSQESVTEQDSKDSTYSLSSTLTLSKADYEKHKVYACEVTHQGLSSPVTKSFNRGEC
B11: B31-H3L3-MMAE (antibody, human IgG1, kappa, V domains shown)
VH: B1 VH with A74S, S83N
VL: B1 VL with K24R, D56S, Y71F
modifications: MC-VC-PAB-MMAE on cysteine sulfhydryl groups of reduced interchain disulfides; average DAR 3.5 over the whole antibody
notes: conjugated positions not resolved; also called B31-H3L3-MC-VC-PAB-MMAE; B31-MMAE
B12: B62-H3L3-MMAE (antibody, human IgG1, kappa)
heavy: not shown
light: B10 light
modifications: MC-VC-PAB-MMAE on cysteine sulfhydryl groups of reduced interchain disulfides; average DAR 3.5 over the whole antibody
notes: conjugated positions not resolved; also called B62-H3L3-MC-VC-PAB-MMAE

target: T1, huROR1-His (human ROR1 ECD AA30-406 with C-terminal His tag, made in house) (human, UniProt Q01973 30-406); assay: ELISA, huROR1-His coated plate, goat anti-human Fc-HRP, OD450
T1 construct: range 30-406; Expressed in HEK293; also called antigen protein huROR1-His; not shown: C-terminal His tag
T1 sequence (Q01973 30-406 limits assumed): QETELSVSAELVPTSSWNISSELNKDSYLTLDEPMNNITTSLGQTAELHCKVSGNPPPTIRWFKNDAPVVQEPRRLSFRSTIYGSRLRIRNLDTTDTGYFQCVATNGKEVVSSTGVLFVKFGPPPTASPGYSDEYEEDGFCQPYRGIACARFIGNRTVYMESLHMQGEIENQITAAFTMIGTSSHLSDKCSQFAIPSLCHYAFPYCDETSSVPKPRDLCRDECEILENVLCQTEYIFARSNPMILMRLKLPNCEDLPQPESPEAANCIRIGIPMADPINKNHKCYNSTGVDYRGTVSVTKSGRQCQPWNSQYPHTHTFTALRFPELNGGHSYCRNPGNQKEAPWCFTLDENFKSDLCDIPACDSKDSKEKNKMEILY

Row | EC50 [ng/mL] | Binder
1 | 4.57 | B1
2 | 3.24 | B2
3 | 4.29 | B3

target: T1, huROR1-His (human ROR1 ECD AA30-406 …); assay: as above; remark: another data set of the same source

Row | EC50 [ng/mL] | Binder
4 | 4.6 | B4
5 | 3.23 | B5
6 | 5.23 | B6

target: T1, huROR1-His (human ROR1 ECD AA30-406 …); assay: as above; remark: another data set of the same source

Row | EC50 [ng/mL] | Binder
7 | 8.12 | B7
8 | 17.1 | B8
9 | 5.74 | B9

target: T1, huROR1-His (human ROR1 ECD AA30-406 …); assay: as above; remark: another data set of the same source

Row | EC50 [ng/mL] | Binder
10 | 7.21 | B10

target: T2, human ROR1 on cells (full-length human ROR1 on huROR1-HEK293 cells; human ROR1 on A549 and HT-29 tumor cells) (human, UniProt Q01973 30-937); assay: flow cytometry (FACS) on A549 tumor cells, anti-human IgG-Fc secondary antibody, MFI
T2 construct: whole, on cells; also called hROR1-HEK293T; A549 tumor cells
Description: (§1) The specific method was as follows: A549 cells or HT-29 cells in the logarithmic growth phase were prepared to a single-cell suspension, the density was adjusted to 1×10⁶ cells/mL, 100 µL/well was added to a 96-well round-bottom plate, then centrifuged at 4° C., 300 g, and the supernatant was removed. […] After the incubation, the cell mixture was washed three times and then 100 μL of 1:300 diluted secondary antibody Goat F(ab′)₂ Anti-Human IgG-Fc (abcam, ab98596) was added. The mixture was incubated at 4° C. in the dark for 30 min. After washing three times, the cells were detected by flow cytometry (Beckman, CytoFLEX AOO-1-1102).

T2 sequence (Q01973 30-937): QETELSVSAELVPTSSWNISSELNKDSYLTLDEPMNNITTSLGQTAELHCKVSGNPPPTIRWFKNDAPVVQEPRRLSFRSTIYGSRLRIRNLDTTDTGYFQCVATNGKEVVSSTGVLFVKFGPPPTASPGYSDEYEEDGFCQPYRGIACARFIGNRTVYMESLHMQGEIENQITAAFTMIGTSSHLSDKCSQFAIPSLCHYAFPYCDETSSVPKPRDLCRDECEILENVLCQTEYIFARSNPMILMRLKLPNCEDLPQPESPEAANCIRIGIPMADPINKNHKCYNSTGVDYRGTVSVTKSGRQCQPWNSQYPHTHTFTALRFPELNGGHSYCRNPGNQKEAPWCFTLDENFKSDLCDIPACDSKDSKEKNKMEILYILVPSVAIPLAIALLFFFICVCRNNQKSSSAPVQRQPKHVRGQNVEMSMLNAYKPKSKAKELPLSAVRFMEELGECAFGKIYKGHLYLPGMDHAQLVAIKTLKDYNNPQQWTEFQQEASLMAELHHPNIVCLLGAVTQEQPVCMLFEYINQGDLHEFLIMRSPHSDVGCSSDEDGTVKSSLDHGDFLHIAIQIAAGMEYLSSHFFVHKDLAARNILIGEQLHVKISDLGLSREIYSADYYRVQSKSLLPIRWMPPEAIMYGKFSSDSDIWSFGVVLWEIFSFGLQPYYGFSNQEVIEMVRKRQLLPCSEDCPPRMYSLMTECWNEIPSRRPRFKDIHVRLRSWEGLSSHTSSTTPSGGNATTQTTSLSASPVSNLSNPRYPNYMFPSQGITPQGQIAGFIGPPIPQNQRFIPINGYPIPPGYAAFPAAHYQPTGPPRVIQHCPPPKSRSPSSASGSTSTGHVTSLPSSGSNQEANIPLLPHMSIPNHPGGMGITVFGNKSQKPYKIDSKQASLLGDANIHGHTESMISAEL

Row | EC50 (read off the curve) [ng/mL] | Binder
11 | ~20 | B11
12 | ~20 | B4
13 | ~10 | B10
14 | ~20 | B12

target: T2, human ROR1 on cells (full-length human …); assay: flow cytometry (FACS) on HT29 (HT-29) tumor cells, anti-human IgG-Fc secondary antibody, MFI
Description: as §1

Row | EC50 (read off the curve) [ng/mL] | Binder
15 | ~20 | B11
16 | ~20 | B4
17 | ~20 | B10
18 | ~20 | B12
